*: point of attachment. FITC = O=C1OC2(c3ccc(O)cc3Oc3cc(O)ccc32)c2ccc(NC(=S)*)cc21; Ahx = NCCCCCC(=O)O
B1: FITC-Ahx-YHWYGYTPENVI-CONH2 (peptide)
peptide: {FITC-Ahx}-YHWYGYTPENVI-NH2
SMILES: CC[C@H](C)[C@H](NC(=O)[C@@H](NC(=O)[C@H](CC(N)=O)NC(=O)[C@H](CCC(=O)O)NC(=O)[C@@H]1CCCN1C(=O)[C@@H](NC(=O)[C@H](Cc1ccc(O)cc1)NC(=O)CNC(=O)[C@H](Cc1ccc(O)cc1)NC(=O)[C@H](Cc1c[nH]c2ccccc12)NC(=O)[C@H](Cc1c[nH]cn1)NC(=O)[C@H](Cc1ccc(O)cc1)NC(=O)CCCCCNC(=S)Nc1ccc2c(c1)C(=O)OC21c2ccc(O)cc2Oc2cc(O)ccc21)[C@@H](C)O)C(C)C)C(N)=O

How the values were obtained:
hEGFRvIII = molecular target: T1, hEGFRvIII (Homo sapiens, UniProt P00533, DELINS30-297G); test: Phage display biopanning against hEGFRvIII with NGS enrichment analysis; assay type: binding; settings: over rounds of biopanning
T1 construct: using purified and active extracellular domain for EGFRvIII protein; purchased Sino Biological
Procedure: Ph.D.-12™ Phage Display Peptide Library Kit was purchased from New England Biolabs Inc. (Beverly, MA, USA). Biopanning procedures were done according to the manufacturer's instruction with certain modifications. Briefly, a 96-well plate was coated with 150 μL hEGFRvIII (Sino Biological) (in the first two rounds at 100 μg/mL, the third round at 10 μg/mL) overnight at 4° C. Wells were washed with PBS, blocked with blocking buffer (3% BSA in PBS), washed six times with cold PBST (PBS+0.1% [v/v] Tween-20), then incubated with […] phage peptide library Ph.D.-12 for 2 hours at RT. […]
The NGS data analysis is an imperative approach to filter out all the non-specific binders and identify the putative binders. In addition, NGS also allows us to perform deeper quantitative analysis, such as calculating the frequency of amino acids distribution in each position of the peptide sequence, consensus motif and target unrelated peptides. […] This is highly useful as we can follow how the read of a peptide evolves or changes with the rounds of biopanning. […] The total number of sequences and the corresponding number of reads for each DNA sequence are recorded in a separate CSV file. […] Due to codon degeneracy, different codons can translate into same amino acids, thus after translation identical sequences exist with different reads. […]

[1] = molecular target: T2, human EGF receptor variant III (EGFRvIII) on CLTH/EGFRvIII cells (human, UniProt P00533 25-1210); test: flow cytometry, normalized MFI on EGFRvIII cells over normalized MFI on EGFR WT cells
T2 construct: whole, on cells
Procedure: On FITC-Ahx-peptides. Flow cytometry analysis was also performed to quantitatively analyze the binding affinity of the synthetized peptides to the different cell types. […] The next day, cells were treated with FITC-Ahx-peptides using a stock solution in pure DMSO at 5 mM to reach a final concentration of 10 µM (final percentage of DMSO of 0.2%). Plates were incubated for 20 min at RT. Cells were detached from the plates by a PBS fush, transferred to FACS tubes and washed 2 times with 4 mL of PBS. Cells were stained with LIVE/DEAD™ Fixable Near-IR Dead Cell Stain Kit (Thermofisher) as a viability marker. Cells were analyzed by flow cytometry on a MACSQuant Analyser 16 (Miltenyi Biotec) using the MACS Quantify software to acquire and process the data. LIVE/DEAD™ Fixable dye was excited at 640 nm and fluorescence was collected with the 785/62 nm filter. FITC was excited at 488 nm and fluorescence was collected with the 525/50 nm filter. Viable cells were gated, FITC fluorescence intensity was recorded and the mean fluorescence intensity (MFI) was measured. MFI values were then normalized by substracting MFI from blank cells and dividing by the correction factor determined using a spectrofluorimeter.

| Molecule | enrichment on NGS (hEGFRvIII) | Normalized MFI ratio vIII/WT [1] |
| --- | --- | --- |
| NPIVRSAEDGQL (Negative hit peptide) [negative hit peptide from biopanning] | didn't show any significant enrichment | – |
| B1 | – | 2.1 |

Reference: patent US20250368684A1, “NEW EGFRVIII-BINDING PEPTIDES, CONJUGATES AND USES THEREOF” (NANOTHERA BIOSCIENCES, INC., priority 2021, published 2025)
